Data on one substance can be found in patent publication US20250051400A1.

As a reminder, the Kd is the concentration at which binding is half-saturated.

The target of one assay is human IgG4 (Natalizumab). The assay is described as follows: SPR, Biacore 3000, 25 C, Langmuir 1:1 model.
A further assay deals with human IgG2 (Panitumomab). The assay is described as follows: SPR, Biacore 3000, 25 C, Langmuir 1:1 model.

As for “Wt C-domain (wild-type Protein A domain C) (from UniProt P38507 270-327)”, the Kd in the assay with human IgG4 (Natalizumab) turned out to be 8 nM; in the assay with human IgG2 (Panitumomab) it was 129 nM.
